Consider 3 molecules from patent US20240010747A1, “ANTI-MRP4 (ENCODED BY ABCC4 GENE) ANTIBODIES AND USES THEREOF” (Kenjockety Biotechnology, Inc., priority 2020, published 2024).

Sequences and labels used below:
T1: cynomolgus ABCC4 (cynomolgus, UniProt A0A2K5W0Z4 1-1325)
T1 construct: whole, on cells; Expressed on murine C6 cells stably transfected with cynomolgus ABCC4 cDNA with C-terminal FLAG tag; not shown: C-terminal fused FLAG tag
T1 sequence: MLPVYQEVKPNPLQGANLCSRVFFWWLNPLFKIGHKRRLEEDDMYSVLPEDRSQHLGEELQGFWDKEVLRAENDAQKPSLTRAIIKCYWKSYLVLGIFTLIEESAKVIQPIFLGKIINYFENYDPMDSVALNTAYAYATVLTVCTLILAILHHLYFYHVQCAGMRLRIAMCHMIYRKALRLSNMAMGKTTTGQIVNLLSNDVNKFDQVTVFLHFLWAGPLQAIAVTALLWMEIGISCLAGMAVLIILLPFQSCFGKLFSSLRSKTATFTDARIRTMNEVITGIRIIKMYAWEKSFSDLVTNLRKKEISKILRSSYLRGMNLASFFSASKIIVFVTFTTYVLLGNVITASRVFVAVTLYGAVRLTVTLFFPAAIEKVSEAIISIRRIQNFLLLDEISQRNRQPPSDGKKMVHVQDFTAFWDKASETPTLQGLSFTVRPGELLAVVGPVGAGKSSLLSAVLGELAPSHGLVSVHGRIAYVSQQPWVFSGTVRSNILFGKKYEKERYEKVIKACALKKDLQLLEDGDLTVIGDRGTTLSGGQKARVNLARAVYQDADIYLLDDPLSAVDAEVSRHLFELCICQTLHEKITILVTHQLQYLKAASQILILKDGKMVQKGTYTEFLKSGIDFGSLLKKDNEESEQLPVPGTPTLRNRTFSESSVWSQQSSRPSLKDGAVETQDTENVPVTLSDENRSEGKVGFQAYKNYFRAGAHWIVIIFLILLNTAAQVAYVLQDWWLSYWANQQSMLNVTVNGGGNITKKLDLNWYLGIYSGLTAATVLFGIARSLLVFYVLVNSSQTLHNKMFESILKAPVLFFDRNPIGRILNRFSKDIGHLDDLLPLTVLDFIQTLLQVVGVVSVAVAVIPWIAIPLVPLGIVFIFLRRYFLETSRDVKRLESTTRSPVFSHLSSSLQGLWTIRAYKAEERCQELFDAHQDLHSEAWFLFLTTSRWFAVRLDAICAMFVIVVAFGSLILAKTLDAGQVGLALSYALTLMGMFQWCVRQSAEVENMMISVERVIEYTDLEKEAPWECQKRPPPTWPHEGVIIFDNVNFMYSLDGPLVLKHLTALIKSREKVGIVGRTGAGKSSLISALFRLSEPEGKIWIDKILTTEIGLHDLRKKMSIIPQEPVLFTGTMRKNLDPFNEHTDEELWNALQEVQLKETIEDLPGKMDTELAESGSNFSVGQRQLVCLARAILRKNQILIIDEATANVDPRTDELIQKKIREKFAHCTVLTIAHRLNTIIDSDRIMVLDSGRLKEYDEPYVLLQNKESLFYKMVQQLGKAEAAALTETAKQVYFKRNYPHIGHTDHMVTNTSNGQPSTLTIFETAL

B1: C4.1059 (antibody, V domains shown)
VH: QVQLLQSGAALVKPGASVKMSCKPSGYTFTDYWVSWVKQSHGKSLEWIGEIYPNNGATNFNEKFKGKATLTVDKSTSTAYMELSRLTSEDSAIYYCPSRKYGYNWNFDYWGQGTMVTVSS
VL: DIVLTQSPALAVSLGQRATISCWASQSVSISRYNLMHWYQQKPGQQPKLLIYRASNLASGIPARFSGSGSGTDFTLTINPVQADDIATYYCQQSGESPWTFGGGTKLELK
B2: C4.1139 (antibody, V domains shown)
VH: EVQLVESDGGLVQPGRSLKLSCAASGFTFSDYYMAWVRQAPTKGLYWVASISYDGSTTYYRDSVKGRFTISRDNAKSTLYLQMGSLRSEDTATYYCARLSIRYKGVMDAWGRGASVTVSS
VL: DVVMTQSPSNLAASPGESVSINCKASKSIGKFLAWYQQKPGRPNKLLIYSGSTLQSGTPSRFSGSGSGTDFTLTIRNLEPGDFGLYYCQHHIEYPPTFGPGTKLELK
B3: C4.1148 (antibody, V domains shown)
VH: EVQLVESDGGLVQPGRSLKLSCAASGFTFSDYYMAWVRQAPPKGLEWVATISYDAFTTYYRDSVKGRFTISRDNAKTILFLQMDSLRSEDTATYYCIRLSTRYKGVMDAWGHGASVTVSS
VL: DIQMTQSPSNLAASPGESVSINCKASETIYKYLAWYQQKPGRTNKLLIYSGSTLQSGTPSRFSGSGSGTDFTLTIRNLEPEDFGRYYCQHHVEYPPTFGAGTKLELK

The first assay has as its target T1, cynomolgus ABCC4. Description: FACS, different C6.cC4 cell line stably expressing cynomolgus ABCC4.
Conditions: not given
The protocol:
Antibody binding to cells was evaluated by flow cytometry. Murine C6 cells stably transfected to express human or cynomolgus ABCC4 were washed once in flow cytometry buffer (PBS+2% FBS+0.02% sodium azide), resuspended at 2×10\hat{ }6 cells/mL in flow cytometry buffer, and dispensed into 96-well microtiter plates at 0.1 mL/well. Recombinant antibodies were added to cells at 5 ug/mL for initial binding confirmation, or serially diluted from 100 ug/mL in flow cytometry buffer. After incubating cells on ice for 30 min, cells were washed twice with flow cytometry buffer. Bound antibody was detected with PE-labeled F(ab′)₂ fragment goat anti-human IgG (Jackson ImmunoResearch) and evaluated on an Attune N×T flow cytometer. EC50 is calculated to be the concentration of antibody that gives half maximal response.
A general note: A flow cytometer gives signals particle by particle.
With B1, the binding result is “no binding (tested: Rmax (MFI) below background level)”.
On the same count and under the same terms, under B2 stands “no binding (tested: Rmax (MFI) below background level)”.
On the same count and under the same terms, then B3, with “no binding (tested: Rmax (MFI) below background level)”.

A further assay has as its system cynomolgus ABCC4. Description: Flow cytometry (FACS) binding to C6 cells stably transfected to express cynomolgus ABCC4 (different experiment, different C6.cC4 cell line, Table 4). Set-up: key to Cynomolgus ABCC4 binding: Negative (−)=Rmax (MFI) below background level; Positive (+)=MFI>3× background level. The settings on record: different C6.cC4 cell line, C6 cells stably transfected to express cynomolgus ABCC4, FACS; Table 4. Put shortly:
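Murine C6 cells stably expressing FLAG-tagged human or cynomolgus ABCC4 incubated 30 min on ice with antibodies, either 5 ug/mL or serially diluted from 100 ug/mL, in PBS+2% FBS+0.02% azide. Detection with PE anti-human IgG F(ab′)2 by flow cytometry; EC50 at half-maximal MFI; negative below background, positive >3× background.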
Turning to B1, the “Cynomolgus ABCC4 binding” value is given as “−”.
Take B2: the “Cynomolgus ABCC4 binding” value is “−”.
B3: the “Cynomolgus ABCC4 binding” value is recorded as “−”.
